The target in one data set is T1, His6-Rev7 R124A (human, UniProt Q9UI95 1-211, R124A).
T1 construct: human Rev7 with R124A (disrupts Rev7 dimerization); The Rev7 chain of m12, written alone for the pairs that touch inside the reconstituted complexes; source: prepared as previously described
As to the kind of experiment: SEC; purified recombinant proteins mixed (1:1:1 molar ratios for Figure 1E) and fractionated on Superdex 200 10/300 GL; fractions on SDS-PAGE, Coomassie. The conditions noted are these: both partners purified.

Data set [1] concerns the molecule itself. As to the kind of experiment: SEC; single purified TFII-I fragments fractionated on Superdex 200; apparent molecular mass against standards; monomer or homodimer.
For data set [2], the target named is T2, Rev7 R124A–Rev3L (residues 1847–1898) complex (human, UniProt Q9UI95 1-211; O60673 1847-1898, R124A).
T2 construct: human Rev7 with R124A (disrupts Rev7 dimerization); also called Rev7–Rev3L; source: recombinant, purified; prepared as previously described; copies: 1 + 1
As to the kind of experiment: SEC; purified recombinant proteins mixed (1:1:1 molar ratios for Figure 1E) and fractionated on Superdex 200 10/300 GL; fractions on SDS-PAGE, Coomassie. The settings on record: both partners purified.

T2 sequence (Q9UI95 whole entry R124A, the tested form may be a part, one chain of several): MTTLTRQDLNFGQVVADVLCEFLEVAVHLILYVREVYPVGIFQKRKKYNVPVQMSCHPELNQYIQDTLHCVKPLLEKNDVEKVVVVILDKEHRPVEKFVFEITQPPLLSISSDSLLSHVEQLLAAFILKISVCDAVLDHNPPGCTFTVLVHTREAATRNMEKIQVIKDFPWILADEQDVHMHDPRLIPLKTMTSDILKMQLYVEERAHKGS
T1 sequence (Q9UI95 whole entry R124A): as the sequence (Q9UI95 whole entry R124A, the tested form may be a part, one chain of several) above

B1: Rev3L RBM (residues 1847–1898) (domain or fragment, human, UniProt O60673 1847-1898, looked up)
chain: MLTPTPDSSPRSTSSPSQSKNGSFTPRTANILKPLMSPPSREEIMATLLDHD
notes: The Rev3L chain of m12; also called Rev3L fragment; source: recombinant, purified together with His6-Rev7 R124A; prepared as previously described
In the case of B1, the binding result with His6-Rev7 R124A is “binds”.

B2: TFII-I^1–667 fragment (domain or fragment, human, UniProt P78347 1-667, looked up)
chain: MAQVAMSTLPVEDEESSESRMVVTFLMSALESMCKELAKSKAEVACIAVYETDVFVVGTERGRAFVNTRKDFQKDFVKYCVEEEEKAAEMHKMKSTTQANRMSVDAVEIETLRKTVEDYFCFCYGKALGKSTVVPVPYEKMLRDQSAVVVQGLPEGVAFKHPENYDLATLKWILENKAGISFIIKRPFLEPKKHVGGRVMVTDADRSILSPGGSCGPIKVKTEPTEDSGISLEMAAVTVKEESEDPDYYQYNIQAGPSETDDVDEKQPLSKPLQGSHHSSEGNEGTEMEVPAEDSTQHVPSETSEDPEVEVTIEDDDYSPPSKRPKANELPQPPVPEPANAGKRKVREFNFEKWNARITDLRKQVEELFERKYAQAIKAKGPVTIPYPLFQSHVEDLYVEGLPEGIPFRRPSTYGIPRLERILLAKERIRFVIKKHELLNSTREDLQLDKPASGVKEEWYARITKLRKMVDQLFCKKFAEALGSTEAKAVPYQKFEAHPNDLYVEGLPENIPFRSPSWYGIPRLEKIIQVGNRIKFVIKRPELLTHSTTEVTQPRTNTPVKEDWNVRITKLRKQVEEIFNLKFAQALGLTEAVKVPYPVFESNPEFLYVEGLPEGIPFRSPTWFGIPRLERIVRGSNKIKFVVKKPELVISYLPPGMASKINTKALQ
notes: source: bacteria, GST fusion, purified (glutathione-Sepharose 4B, PreScission, anion exchange, size exclusion)
As for B2, the “stoichiometry N” value in data set [1] came to 2.

B3: TFII-I fragment (residues 350–667) containing R2-R4 (domain or fragment, human, UniProt P78347 350-667, looked up)
chain: NFEKWNARITDLRKQVEELFERKYAQAIKAKGPVTIPYPLFQSHVEDLYVEGLPEGIPFRRPSTYGIPRLERILLAKERIRFVIKKHELLNSTREDLQLDKPASGVKEEWYARITKLRKMVDQLFCKKFAEALGSTEAKAVPYQKFEAHPNDLYVEGLPENIPFRSPSWYGIPRLEKIIQVGNRIKFVIKRPELLTHSTTEVTQPRTNTPVKEDWNVRITKLRKQVEEIFNLKFAQALGLTEAVKVPYPVFESNPEFLYVEGLPEGIPFRSPTWFGIPRLERIVRGSNKIKFVVKKPELVISYLPPGMASKINTKALQ
notes: as for B2
For B3, the “stoichiometry N” value in data set [2] worked out at 1.

B4: Rev1 CTD (residues 1140–1251) (domain or fragment, human, UniProt Q9UBZ9 1140-1251, looked up)
chain: GLSSLQSDPAGCVRPPAPNLAGAVEFNDVKTLLREWITTISDPMEEDILQVVKYCTDLIEEKDLEKLDLVIKYMKRLMQQSVESVWNMAFDFILDNVQVVLQQTYGSTLKVT
notes: Rev1 C-terminal domain, residues 1140-1251; also called C-terminal domain (CTD) of Rev1; source: bacteria, GST fusion, purified (glutathione-Sepharose 4B, PreScission, anion exchange, size exclusion)
On to B4, for which, in data set [2], the “stoichiometry N” value was 1.

Values taken from publication PMC4055408, “The Transcription Factor TFII-I Promotes DNA Translesion Synthesis and Genomic Stability” (PLoS Genetics, 2014).
